From patent US20030092091A1 (GlaxoSmithKline, published 2003)
Residue numbers refer to the chain shown, from its start. Each block holds one binder with its values, some of them ahead of it.

Legend:
[1] = biological target: SAF-2 (Siglec-8 / Siglec-8L) on the cell surface (human) (UniProt Q9NYZ4); experiment: cell-based or functional assay
[2] = biological target: T1, SAF-2 polypeptide (extracellular domain of sialoadhesin factor-2, released from SAF-2/Fc by Factor Xa … (human, UniProt Q9NYZ4 17-363)); experiment: BIAcore SPR. The mAb was captured on a rabbit anti-mouse IgG Fc surface and SAF-2 was injected as analyte. KD was calculated from the rates.
T1 construct: extracellular domain; The BIAcore analyte is printed only as 'SAF-2 (diluted in HBS buffer)'; Residues left over from the cleavage site are not described; also called Siglec-8
Experimental: (§1) Kinetic data was evaluated using relationships described previously (Karlsson, et al. (1991) J. Immunol. Meth. 145:229). The mAb (diluted in HBS buffer, 10 mM HEPES, 150 mM NaCl, 0.01% Tween-20, pH 7.4) was injected over a rabbit anti-mouse IgG Fe surface, followed by buffer flow, and the RU was recorded. SAF-2 (diluted in HBS buffer) was then injected for 180 seconds, followed by a buffer flow for 300 seconds, and the RU was recorded. The sensor chip surface was regenerated by an injection of 0.1 M phosphoric acid. The on-rates (Kₐ) and off-rates (Kd) of binding were calculated using BIAcore (Uppswala, Sweden) software.

[3] = biological target: T1, SAF-2 polypeptide (extracellular domain …); experiment: BIAcore SPR. The mAb was captured on a rabbit anti-mouse IgG Fc surface and SAF-2 was injected as analyte.
Experimental: as §1

Sequence of SAF-2 (Siglec-8 / Siglec-8L) on the cell surface (human) (Q9NYZ4 17-499): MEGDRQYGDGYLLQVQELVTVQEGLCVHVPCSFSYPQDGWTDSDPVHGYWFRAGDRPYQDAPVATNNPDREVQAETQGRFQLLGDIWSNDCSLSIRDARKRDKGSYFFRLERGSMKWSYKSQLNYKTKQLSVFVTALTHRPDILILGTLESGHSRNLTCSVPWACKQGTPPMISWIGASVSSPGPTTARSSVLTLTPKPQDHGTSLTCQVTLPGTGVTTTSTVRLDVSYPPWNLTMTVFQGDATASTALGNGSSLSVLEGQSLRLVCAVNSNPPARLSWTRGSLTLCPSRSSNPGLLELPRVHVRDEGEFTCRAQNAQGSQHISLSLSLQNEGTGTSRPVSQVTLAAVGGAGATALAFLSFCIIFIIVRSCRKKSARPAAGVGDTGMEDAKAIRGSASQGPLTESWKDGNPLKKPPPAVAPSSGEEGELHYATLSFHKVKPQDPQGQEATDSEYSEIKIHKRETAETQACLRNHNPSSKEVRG
T1 sequence (Q9NYZ4 17-363): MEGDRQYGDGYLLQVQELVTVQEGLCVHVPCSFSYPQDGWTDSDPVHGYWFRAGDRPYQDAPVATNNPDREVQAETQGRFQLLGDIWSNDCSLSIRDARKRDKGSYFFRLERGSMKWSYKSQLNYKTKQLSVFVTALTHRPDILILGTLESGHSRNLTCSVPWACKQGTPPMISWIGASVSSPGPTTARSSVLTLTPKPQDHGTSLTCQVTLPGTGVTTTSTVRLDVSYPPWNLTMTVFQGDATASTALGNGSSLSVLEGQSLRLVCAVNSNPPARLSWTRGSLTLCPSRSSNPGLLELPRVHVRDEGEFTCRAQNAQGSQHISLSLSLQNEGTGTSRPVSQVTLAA

apoptosis (annexin-V) of IL-5-primed eosinophils, 2E2 mAb alone [1]: 69% | apoptosis (annexin-V) of unprimed eosinophils, 2E2 and secondary Ab [1]: 72%
B1: 2E2 mAb (antibody, from another filing, V domains shown)
VH: VQLKRASGPGLVAPSQSLSITCTVSGFSLTIYGAHWVRQPPGKGLEWLGVIWAGGSTNYNSALMSRLSISKDNSKSQVFLKINSLQTDDTALYYCARDGSSPYYYSMEYWGQGTSVTVSS
VL: QIILTQSPAIMSASPGEKVSITCSATSSVSYMHWFQQKPGTSPKLWIYSTSNLASGVPVRFSGSGSGTSYSLTISRMEAEDAATYYCQQRSSYPFTFGSGTKLEIKA
eosinophil death at 48-72 h of culture (erythrosin-B dye exclusion), 2E2 plus secondary polyclonal Ab [1]: > 90% | eosinophil death at 24 h of culture (erythrosin-B dye exclusion), 2E2 plus secondary polyclonal Ab [1]: 68%

Kd [2]: 200 pM | koff [3]: 4.3e-05 s⁻¹ | kon [3]: 220000 M⁻¹ s⁻¹
B2: monoclonal antibody 2C4 (antibody, IgG1, V domains shown)
VH: QVQLKESGPGLVAPSQSLSITCTVSGFSLIYGAHWVRQPPGKGLEWLGVIWAGGSTNYNSALMSRLSISKDNSKSQVFLKINSLQTDDTALYYCARDGSSPYYYSMEYWGQGTSVTVSS
VL: B1 VL with Q1E, A107R
notes: also called mAb 2C4
